In PMC2120133 (The Journal of Cell Biology, 1994):

Molecular target: Gal4 DNA-binding domain-Nup1p carboxy-terminal fusion (pSWB11) (yeast, UniProt P20676 655-1076)
Test: two-hybrid

Gal4 DNA-binding domain-Nup1p carboxy-terminal fusion (pSWB11), sequence (P20676 655-1076): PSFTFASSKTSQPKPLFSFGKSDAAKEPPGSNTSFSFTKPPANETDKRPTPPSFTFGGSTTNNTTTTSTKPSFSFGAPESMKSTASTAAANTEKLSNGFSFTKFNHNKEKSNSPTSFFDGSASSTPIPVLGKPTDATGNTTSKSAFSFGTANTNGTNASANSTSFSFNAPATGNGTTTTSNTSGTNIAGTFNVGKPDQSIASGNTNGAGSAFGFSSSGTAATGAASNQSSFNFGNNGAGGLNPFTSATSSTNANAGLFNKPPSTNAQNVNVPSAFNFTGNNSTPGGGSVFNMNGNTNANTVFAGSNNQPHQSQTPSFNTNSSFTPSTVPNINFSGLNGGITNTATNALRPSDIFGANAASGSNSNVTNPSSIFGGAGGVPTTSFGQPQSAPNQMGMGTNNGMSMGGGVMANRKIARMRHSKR

fold increase in beta-galactosidase activity: > 160 fold
B1: Gal4 activation domain-Srp1p fusion (pSWB17) (domain or fragment, yeast, UniProt Q02821 30-542, looked up)
chain: DELRRRRDTQQVELRKAKRDEALAKRRNFIPPTDGADSDEEDESSVSADQQFYSQLQQELPQMTQQLNSDDMQEQLSATVKFRQILSREHRPPIDVVIQAGVVPRLVEFMRENQPEMLQLEAAWALTNIASGTSAQTKVVVDADAVPLFIQLLYTGSVEVKEQAIWALGNVAGDSTDYRDYVLQCNAMEPILGLFNSNKPSLIRTATWTLSNLCRGKKPQPDWSVVSQALPTLAKLIYSMDTETLVDACWAISYLSDGPQEAIQAVIDVRIPKRLVELLSHESTLVQTPALRAVGNIVTGNDLQTQVVINAGVLPALRLLLSSPKENIKKEACWTISNITAGNTEQIQAVIDANLIPPLVKLLEVAEYKTKKEACWAISNASSGGLQRPDIIRYLVSQGCIKPLCDLLEIADNRIIEVTLDALENILKMGEADKEARGLNINENADFIEKAGGMEKIFNCQQNENDKIYEKAYKIIETYFGEEEDAVDETMAPQNAGNTFGFGSNVNQQFNFN
